The RNAGym collection of RNA variant scans (doi:10.7554/elife.80360)

B1: CPEB3 Ribozyme (parent)
chain: GGGGGCCACAGCAGAAGCGUUCACGUCGCGGCCCCUGUCAGAUUCUGGUGAAUCUGCGAAUUCUGCUGU

Variants of: B1
Test: self-cleavage, relative activity (ratio to wild type); higher = more cleavage; co-transcriptional

Variant	self-cleavage
GGGGGCCACAGCAGAAGCGUUCACGUCGCGGCCCCUCUCAGAUUCUGGUGGAUCUGCGAAUUCUGCUGU [G37C A51G]	0.205
GGGGGCCACAGCAGAAGCGUUCACGUCGCGGCCCCUAUCAGAUUCUGGUGAAUCUGCUAAUUCUGCUGU [G37A G58U]	0.247
GGGGGCCACAGCAGAAGCGUUCACGUCGCGGCCCCUAUCAGAUUCUGGUGAAUCUGCAAAUUCUGCUGU [G37A G58A]	0.289
GGGGGCCACAGCAGAAGCGUUCACGUCGCGGCCCCUUUCAUAUUCUGGUGAAUCUGCGAAUUCUGCUGU [G37U G41U]	0.201
GGGGGCCACAGCAGAAGCGUUCACGUCGCGGCCCCUAUCAGAUACUGGUGAAUCUGCGAAUUCUGCUGU [G37A U44A]	0.277
GGGGGCCACAGCAGAAGCGUUCACGUCGCGGCCCCUCUCAGAUUCUGGUGAAUGUGCGAAUUCUGCUGU [G37C C54G]	0.164
GGGGGCCACAGCAGAAGCGUUCACGUCGCGGCCCCUCUCAGAUUGUGGUGAAUCUGCGAAUUCUGCUGU [G37C C45G]	0.346
GGGGGCCACAGCAGAAGCGUUCACGUCGCGGCCCCUAUCAUAUUCUGGUGAAUCUGCGAAUUCUGCUGU [G37A G41U]	0.219
GGGGGCCACAGCAGAAGCGUUCACGUCGCGGCCCCUUUCAGAUUCUGCUGAAUCUGCGAAUUCUGCUGU [G37U G48C]	0.326
GGGGGCCACAGCAGAAGCGUUCACGUCGCGGCCCCUCUCAGAUUCUGGAGAAUCUGCGAAUUCUGCUGU [G37C U49A]	0.307
GGGGGCCACAGCAGAAGCGUUCACGUCGCGGCCCCUCUCAGAUUCAGGUGAAUCUGCGAAUUCUGCUGU [G37C U46A]	0.236
GGGGGCCACAGCAGAAGCGUUCACGUCGCGGCCCCUCUCAGAUUCGGGUGAAUCUGCGAAUUCUGCUGU [G37C U46G]	0.25
GGGGGCCACAGCAGAAGCGUUCACGUCGCGGCCCCUAUCAGAUUCUGGUGAAUCUGCGAACUCUGCUGU [G37A U61C]	0.149
GGGGGCCACAGCAGAAGCGUUCACGUCGCGGCCCCUAUCAGAUUCUGGUGAAUCUGCGAAGUCUGCUGU [G37A U61G]	0.221
GGGGGCCACAGCAGAAGCGUUCACGUCGCGGCCCCUUUCAGAUUCUGGUGAAUUUGCGAAUUCUGCUGU [G37U C54U]	0.332
GGGGGCCACAGCAGAAGCGUUCACGUCGCGGCCCCUCUCAGAUUCUGGUGAAUCUGCGAAUCCUGCUGU [G37C U62C]	0.276
GGGGGCCACAGCAGAAGCGUUCACGUCGCGGCCCCUAUCAGAUUCUGGUGAAUCUGCGAAUUCUGCCGU [G37A U67C]	0.321
GGGGGCCACAGCAGAAGCGUUCACGUCGCGGCCCCUAUCAGAUUCUGGUGAAUCUGCGAAUUCUGCGGU [G37A U67G]	0.334
GGGGGCCACAGCAGAAGCGUUCACGUCGCGGCCCCUCUCAGAUUCUGGUGAAUCUGCGAAUUCAGCUGU [G37C U64A]	0.267
GGGGGCCACAGCAGAAGCGUUCACGUCGCGGCCCCUCUCAGAUUCUGGUGAAUCUGCGAAUUCCGCUGU [G37C U64C]	0.162
GGGGGCCACAGCAGAAGCGUUCACGUCGCGGCCCCUCUCAGAUUCUGGUGAAUCUGCGAAUUCUGCAGU [G37C U67A]	0.274
GGGGGCCACAGCAGAAGCGUUCACGUCGCGGCCCCUCUCAGAUUCUGGUGAAUCUGCGAAUUCUGCGGU [G37C U67G]	0.188
GGGGGCCACAGCAGAAGCGUUCACGUCGCGGCCCCUCUCAGAUUCUGGUGAAUCUGCGAGUUCUGCUGU [G37C A60G]	0.237
GGGGGCCACAGCAGAAGCGUUCACGUCGCGGCCCCUAUCAGAUUCUGGUGAAUCUGCGAAUUGUGCUGU [G37A C63G]	0.258
GGGGGCCACAGCAGAAGCGUUCACGUCGCGGCCCCUAUCAGAUUCUGAUGAAUCUGCGAAUUCUGCUGU [G37A G48A]	0.357
GGGGGCCACAGCAGAAGCGUUCACGUCGCGGCCCCUAUCAGAUUCUGCUGAAUCUGCGAAUUCUGCUGU [G37A G48C]	0.265

Variant	self-cleavage
GGGGGCCACAGCAGAAGCGUUCACGUCGCGGCCCCUCUCAGAUUCUGCUGAAUCUGCGAAUUCUGCUGU [G37C G48C]	0.226
GGGGGCCACAGCAGAAGCGUUCACGUCGCGGCCCCUAUCAGAUUCUGGUGAAUGUGCGAAUUCUGCUGU [G37A C54G]	0.221
GGGGGCCACAGCAGAAGCGUUCACGUCGCGGCCCCUUUCAGAUUCUAGUGAAUCUGCGAAUUCUGCUGU [G37U G47A]	0.324
GGGGGCCACAGCAGAAGCGUUCACGUCGCGGCCCCUAUCAGAUUCUGGUAAAUCUGCGAAUUCUGCUGU [G37A G50A]	0.304
GGGGGCCACAGCAGAAGCGUUCACGUCGCGGCCCCUUUCAGAUUAUGGUGAAUCUGCGAAUUCUGCUGU [G37U C45A]	0.295
GGGGGCCACAGCAGAAGCGUUCACGUCGCGGCCCCUAUCAGAUUCUGGUGAAUCUACGAAUUCUGCUGU [G37A G56A]	0.249
GGGGGCCACAGCAGAAGCGUUCACGUCGCGGCCCCUAUCAGAUUCUGGUGAAUCUUCGAAUUCUGCUGU [G37A G56U]	0.257
GGGGGCCACAGCAGAAGCGUUCACGUCGCGGCCCCUAUCAGAUUCUGGUGAAUCUGCGAAUUCUGCUCU [G37A G68C]	0.371
GGGGGCCACAGCAGAAGCGUUCACGUCGCGGCCCCUUUAAGAUUCUGGUGAAUCUGCGAAUUCUGCUGU [G37U C39A]	0.273
GGGGGCCACAGCAGAAGCGUUCACGUCGCGGCCCCUUUGAGAUUCUGGUGAAUCUGCGAAUUCUGCUGU [G37U C39G]	0.214
GGGGGCCACAGCAGAAGCGUUCACGUCGCGGCCCCUCUCACAUUCUGGUGAAUCUGCGAAUUCUGCUGU [G37C G41C]	0.126
GGGGGCCACAGCAGAAGCGUUCACGUCGCGGCCCCUCUCAAAUUCUGGUGAAUCUGCGAAUUCUGCUGU [G37C G41A]	0.245
GGGGGCCACAGCAGAAGCGUUCACGUCGCGGCCCCUAUCAGAUUCUGGUGAAUCUGCGAAUUCUGCUGG [G37A U69G]	0.538
GGGGGCCACAGCAGAAGCGUUCACGUCGCGGCCCCUAUCAGAUUCUGGUGAAUCUGCGAAUUCUGCUGA [G37A U69A]	0.422
GGGGGCCACAGCAGAAGCGUUCACGUCGCGGCCCCUAUCAGAUUCUGGUGAAUCUGCGAAUUCCGCUGU [G37A U64C]	0.312
GGGGGCCACAGCAGAAGCGUUCACGUCGCGGCCCCUUUCAGAUUCUGGUGAAUCUGCGAAUUCUGUUGU [G37U C66U]	0.245
GGGGGCCACAGCAGAAGCGUUCACGUCGCGGCCCCUCGCAGAUUCUGGUGAAUCUGCGAAUUCUGCUGU [G37C U38G]	0.25
GGGGGCCACAGCAGAAGCGUUCACGUCGCGGCCCCUAUCAGAUUCUGGUGAAGCUGCGAAUUCUGCUGU [G37A U53G]	0.222
GGGGGCCACAGCAGAAGCGUUCACGUCGCGGCCCCUAUCAGAUUCUGGUGAAACUGCGAAUUCUGCUGU [G37A U53A]	0.303
GGGGGCCACAGCAGAAGCGUUCACGUCGCGGCCCCUCUCAGAUUCUGGUGAAUCUGCGUAUUCUGCUGU [G37C A59U]	0.242
GGGGGCCACAGCAGAAGCGUUCACGUCGCGGCCCCUUUCAGAUUCUGGUAAAUCUGCGAAUUCUGCUGU [G37U G50A]	0.284
GGGGGCCACAGCAGAAGCGUUCACGUCGCGGCCCCUUUCAGAUUCUGGUGACUCUGCGAAUUCUGCUGU [G37U A52C]	0.281
GGGGGCCACAGCAGAAGCGUUCACGUCGCGGCCCCUCUCAGAUGCUGGUGAAUCUGCGAAUUCUGCUGU [G37C U44G]	0.211
GGGGGCCACAGCAGAAGCGUUCACGUCGCGGCCCCUCUCAGAUACUGGUGAAUCUGCGAAUUCUGCUGU [G37C U44A]	0.27
GGGGGCCACAGCAGAAGCGUUCACGUCGCGGCCCCUCUCAGCUUCUGGUGAAUCUGCGAAUUCUGCUGU [G37C A42C]	0.237
GGGGGCCACAGCAGAAGCGUUCACGUCGCGGCCCCUCUCAGGUUCUGGUGAAUCUGCGAAUUCUGCUGU [G37C A42G]	0.213

Variant	self-cleavage
GGGGGCCACAGCAGAAGCGUUCACGUCGCGGCCCCUCUCAGAUUCUGGUGAUUCUGCGAAUUCUGCUGU [G37C A52U]	0.254
GGGGGCCACAGCAGAAGCGUUCACGUCGCGGCCCCUCUCAGAGUCUGGUGAAUCUGCGAAUUCUGCUGU [G37C U43G]	0.202
GGGGGCCACAGCAGAAGCGUUCACGUCGCGGCCCCUCUCAGAUUCUGGUGAAUCUGCGAAUUCUGCUGA [G37C U69A]	0.336
GGGGGCCACAGCAGAAGCGUUCACGUCGCGGCCCCUCUCAGAUUCUGGUGAAUCUGCGAAUUCUGCUGC [G37C U69C]	0.428
GGGGGCCACAGCAGAAGCGUUCACGUCGCGGCCCCUCUCAGAUUCUGGUGAAUCUGCGAAUUCUCCUGU [G37C G65C]	0.255
GGGGGCCACAGCAGAAGCGUUCACGUCGCGGCCCCUAUCAGAUUCUGGAGAAUCUGCGAAUUCUGCUGU [G37A U49A]	0.285
GGGGGCCACAGCAGAAGCGUUCACGUCGCGGCCCCUAUCAGAUUCUGGCGAAUCUGCGAAUUCUGCUGU [G37A U49C]	0.303
GGGGGCCACAGCAGAAGCGUUCACGUCGCGGCCCCUUUCAGAUUCUGGUGAAUCUGGGAAUUCUGCUGU [G37U C57G]	0.209
GGGGGCCACAGCAGAAGCGUUCACGUCGCGGCCCCUUUCAGAUUCUGGUGCAUCUGCGAAUUCUGCUGU [G37U A51C]	0.234
GGGGGCCACAGCAGAAGCGUUCACGUCGCGGCCCCUUUCAGAUUCUGGUGGAUCUGCGAAUUCUGCUGU [G37U A51G]	0.266
GGGGGCCACAGCAGAAGCGUUCACGUCGCGGCCCCUUUCAGAUUCUGGUGUAUCUGCGAAUUCUGCUGU [G37U A51U]	0.252
GGGGGCCACAGCAGAAGCGUUCACGUCGCGGCCCCUAUCAGAUUCUGGUGAAUCUGCGAAUGCUGCUGU [G37A U62G]	0.318
GGGGGCCACAGCAGAAGCGUUCACGUCGCGGCCCCUCUCAGAUUCUGGUGAAGCUGCGAAUUCUGCUGU [G37C U53G]	0.129
GGGGGCCACAGCAGAAGCGUUCACGUCGCGGCCCCUCUCAGAUUCUGGUGAACCUGCGAAUUCUGCUGU [G37C U53C]	0.284
GGGGGCCACAGCAGAAGCGUUCACGUCGCGGCCCCUUUCUGAUUCUGGUGAAUCUGCGAAUUCUGCUGU [G37U A40U]	0.257
GGGGGCCACAGCAGAAGCGUUCACGUCGCGGCCCCUCUCAGAUUCUGGUGAAUCUCCGAAUUCUGCUGU [G37C G56C]	0.223
GGGGGCCACAGCAGAAGCGUUCACGUCGCGGCCCCUUUCAGAUUCUGGUGAAUCUGCGAUUUCUGCUGU [G37U A60U]	0.195
GGGGGCCACAGCAGAAGCGUUCACGUCGCGGCCCCUUUCAGAUUCUGGUGAAUCUGCGACUUCUGCUGU [G37U A60C]	0.224
GGGGGCCACAGCAGAAGCGUUCACGUCGCGGCCCCUUUCAGAUUCUGGUGAAUCUGCGAGUUCUGCUGU [G37U A60G]	0.208
GGGGGCCACAGCAGAAGCGUUCACGUCGCGGCCCCUAUCAGAUUCUGGUGAAUCGGCGAAUUCUGCUGU [G37A U55G]	0.234
GGGGGCCACAGCAGAAGCGUUCACGUCGCGGCCCCUCUCAGAUUCUCGUGAAUCUGCGAAUUCUGCUGU [G37C G47C]	0.18
GGGGGCCACAGCAGAAGCGUUCACGUCGCGGCCCCUUUCAGAUUCUGGUGAAUCUGCGGAUUCUGCUGU [G37U A59G]	0.412
GGGGGCCACAGCAGAAGCGUUCACGUCGCGGCCCCUUUCAGAUUCUGGUGAAUCUGCGCAUUCUGCUGU [G37U A59C]	0.218
GGGGGCCACAGCAGAAGCGUUCACGUCGCGGCCCCUAUCAGAUUCUGGUGAAUCUGCGAAUUCUGAUGU [G37A C66A]	0.227
GGGGGCCACAGCAGAAGCGUUCACGUCGCGGCCCCUAUCAGAUUCUGGUGAAUCUGCGAAUUCUGGUGU [G37A C66G]	0.265
GGGGGCCACAGCAGAAGCGUUCACGUCGCGGCCCCUAUCAGAUUAUGGUGAAUCUGCGAAUUCUGCUGU [G37A C45A]	0.23
